Reference: the supplement of paper PMC9112550, “Optimization of the antimicrobial peptide Bac7 by deep mutational scanning” (BMC Biology, 2022)

Test system: Escherichia coli TOP10
Assay: shrunken log2 fold change of peptide-encoding DNA abundance (4.5 h post-induction vs induction); higher = less antimicrobial activity (less host growth inhibition)
Details: time post-induction: 4.5 h; library: site-saturation at positions 5, 18, 19, 20
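Note: peptides expressed intracellularly from a pBAD plasmid library in pooled LB shake-flask culture, induced with 0.3% L-arabinose, DNA abundance read by NGS, three biological replicates, DESeq2 with apeglm shrinkage.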

Row | Sequence | shrunken log2 fold change
1 | RRIRPRPPRLPRPRPRPWNFPRP | -0.205
2 | RRIRNRPPRLPRPRPRPCVPPRP | -0.00911
3 | RRIRWRPPRLPRPRPRPHEHPRP | 0.0185
4 | RRIRNRPPRLPRPRPRPGEDPRP | -0.376
5 | RRIRVRPPRLPRPRPRPNVSPRP | -0.0331
6 | RRIRHRPPRLPRPRPRPDFYPRP | -0.609
7 | RRIRYRPPRLPRPRPRPWCKPRP | -0.00141
8 | RRIRARPPRLPRPRPRPFREPRP | -0.14
9 | RRIRFRPPRLPRPRPRPATWPRP | 0.317
10 | RRIRVRPPRLPRPRPRPVTCPRP | -0.155
11 | RRIRFRPPRLPRPRPRPFNMPRP | -0.314
12 | RRIRTRPPRLPRPRPRPPQMPRP | 0.185
13 | RRIRLRPPRLPRPRPRPMMYPRP | -0.0922
14 | RRIRLRPPRLPRPRPRPACLPRP | 0.00436
15 | RRIRFRPPRLPRPRPRPLGKPRP | -0.17
16 | RRIRGRPPRLPRPRPRPGCNPRP | 0.773
17 | RRIRWRPPRLPRPRPRPHITPRP | -0.699
18 | RRIRGRPPRLPRPRPRPVFMPRP | 0.0348
19 | RRIRVRPPRLPRPRPRPDKGPRP | -0.591
20 | RRIRERPPRLPRPRPRPVPKPRP | 0.358
21 | RRIRVRPPRLPRPRPRPWMAPRP | -0.338
22 | RRIRYRPPRLPRPRPRPAVQPRP | -0.505
23 | RRIRPRPPRLPRPRPRPGTTPRP | 0.195
24 | RRIRGRPPRLPRPRPRPRRWPRP | 0.841
25 | RRIRPRPPRLPRPRPRPMEQPRP | 0.0098

Row | Sequence | shrunken log2 fold change
26 | RRIRMRPPRLPRPRPRPRSHPRP | 0.407
27 | RRIRYRPPRLPRPRPRPFIEPRP | -1.2
28 | RRIRTRPPRLPRPRPRPGDYPRP | 0.142
29 | RRIRDRPPRLPRPRPRPVQLPRP | 0.0283
30 | RRIRVRPPRLPRPRPRPMTMPRP | -0.0831
31 | RRIRRRPPRLPRPRPRPAKWPRP | 0.123
32 | RRIRGRPPRLPRPRPRPWEAPRP | -0.0319
33 | RRIRRRPPRLPRPRPRPGIQPRP | 0.0906
34 | RRIRGRPPRLPRPRPRPLRWPRP | 1.33
35 | RRIRQRPPRLPRPRPRPHTDPRP | -0.228
36 | RRIRGRPPRLPRPRPRPGCVPRP | 1.08
37 | RRIRSRPPRLPRPRPRPHCEPRP | -0.0301
38 | RRIRERPPRLPRPRPRPHWNPRP | -0.843
39 | RRIRMRPPRLPRPRPRPIAFPRP | -0.0147
40 | RRIRGRPPRLPRPRPRPSIFPRP | 0.415
41 | RRIRYRPPRLPRPRPRPSIHPRP | -0.722
42 | RRIRGRPPRLPRPRPRPHIEPRP | 1.15
43 | RRIRLRPPRLPRPRPRPCCLPRP | -0.293
44 | RRIRVRPPRLPRPRPRPLNGPRP | 0.103
45 | RRIRGRPPRLPRPRPRPLATPRP | 2.95
46 | RRIRERPPRLPRPRPRPCYLPRP | -1.07
47 | RRIRRRPPRLPRPRPRPWHGPRP | -0.202
48 | RRIRSRPPRLPRPRPRPCCEPRP | -0.22
49 | RRIRDRPPRLPRPRPRPVMRPRP | 0.592
50 | RRIRIRPPRLPRPRPRPQMIPRP | -0.241

Row | Sequence | shrunken log2 fold change
51 | RRIRNRPPRLPRPRPRPDEQPRP | -0.0726
52 | RRIRLRPPRLPRPRPRPTCEPRP | 0.497
53 | RRIRQRPPRLPRPRPRPLYHPRP | -0.283
54 | RRIRLRPPRLPRPRPRPTTPPRP | 0.138
55 | RRIRPRPPRLPRPRPRPWAAPRP | 0.126
56 | RRIRSRPPRLPRPRPRPNGYPRP | -0.12
57 | RRIRERPPRLPRPRPRPFTKPRP | -0.0421
58 | RRIRKRPPRLPRPRPRPGTVPRP | 0.0317
59 | RRIRGRPPRLPRPRPRPKWWPRP | 1.13
60 | RRIRPRPPRLPRPRPRPQAYPRP | -0.215
61 | RRIRERPPRLPRPRPRPTWPPRP | 0.219
62 | RRIRFRPPRLPRPRPRPNIMPRP | -0.658
63 | RRIRSRPPRLPRPRPRPLVYPRP | -0.206
64 | RRIRMRPPRLPRPRPRPTARPRP | 1.22
65 | RRIRPRPPRLPRPRPRPWLNPRP | -0.541
66 | RRIRYRPPRLPRPRPRPEIVPRP | -0.00224
67 | RRIRSRPPRLPRPRPRPDLHPRP | -0.0732
68 | RRIRERPPRLPRPRPRPWSWPRP | 0.103
69 | RRIRYRPPRLPRPRPRPFKLPRP | -0.0907
70 | RRIRPRPPRLPRPRPRPETVPRP | 0.207
71 | RRIRFRPPRLPRPRPRPRQQPRP | 0.0599
72 | RRIRWRPPRLPRPRPRPMDWPRP | 0.482
73 | RRIRWRPPRLPRPRPRPDLTPRP | 0.251
74 | RRIRRRPPRLPRPRPRPDEYPRP | -0.0588
75 | RRIRPRPPRLPRPRPRPCEVPRP | 0.00799

Row | Sequence | shrunken log2 fold change
76 | RRIRGRPPRLPRPRPRPFMKPRP | -0.248
77 | RRIRRRPPRLPRPRPRPKRDPRP | 0.5
78 | RRIRSRPPRLPRPRPRPCWGPRP | 0.109
79 | RRIRFRPPRLPRPRPRPQLKPRP | -0.0312
80 | RRIRSRPPRLPRPRPRPDNSPRP | -0.13
81 | RRIRYRPPRLPRPRPRPYYHPRP | -0.283
82 | RRIRVRPPRLPRPRPRPNGRPRP | 0.222
83 | RRIRNRPPRLPRPRPRPHSHPRP | -0.472
84 | RRIRDRPPRLPRPRPRPQVSPRP | 0.0416
85 | RRIRERPPRLPRPRPRPYPWPRP | -0.706
86 | RRIRLRPPRLPRPRPRPNSWPRP | -0.0901
87 | RRIRWRPPRLPRPRPRPVERPRP | 0.398
88 | RRIRIRPPRLPRPRPRPCGMPRP | 0.0729
89 | RRIRCRPPRLPRPRPRPLNEPRP | -0.0566
90 | RRIRDRPPRLPRPRPRPDWAPRP | 0.534
91 | RRIRSRPPRLPRPRPRPGIRPRP | 0.694
92 | RRIRVRPPRLPRPRPRPHWMPRP | -0.32
93 | RRIRIRPPRLPRPRPRPDWCPRP | -0.149
94 | RRIRLRPPRLPRPRPRPHYLPRP | -0.278
95 | RRIRTRPPRLPRPRPRPFFNPRP | -0.582
96 | RRIRCRPPRLPRPRPRPDHWPRP | -0.109
97 | RRIRCRPPRLPRPRPRPSQSPRP | -0.221
98 | RRIRGRPPRLPRPRPRPYSYPRP | -0.0264
99 | RRIRCRPPRLPRPRPRPESPPRP | 0.315
100 | RRIRMRPPRLPRPRPRPAPWPRP | 0.807

Row | Sequence | shrunken log2 fold change
101 | RRIRSRPPRLPRPRPRPTSNPRP | 0.133
102 | RRIRARPPRLPRPRPRPPIWPRP | 0.507
103 | RRIRGRPPRLPRPRPRPLEAPRP | 1.44
104 | RRIRSRPPRLPRPRPRPEPNPRP | 0.374
105 | RRIRYRPPRLPRPRPRPSCFPRP | -0.361
106 | RRIRWRPPRLPRPRPRPPYEPRP | -0.103
107 | RRIRLRPPRLPRPRPRPHGIPRP | -0.017
108 | RRIRLRPPRLPRPRPRPAELPRP | -0.172
109 | RRIRSRPPRLPRPRPRPAIMPRP | -0.152
110 | RRIRTRPPRLPRPRPRPTMYPRP | -0.82
111 | RRIRWRPPRLPRPRPRPAIWPRP | 0.596
112 | RRIRVRPPRLPRPRPRPPNEPRP | 0.345
113 | RRIRHRPPRLPRPRPRPCAHPRP | 0.0671
114 | RRIRGRPPRLPRPRPRPFMHPRP | 0.416
115 | RRIRPRPPRLPRPRPRPMLHPRP | -0.0917
116 | RRIRMRPPRLPRPRPRPGATPRP | 1.38
117 | RRIRKRPPRLPRPRPRPNDVPRP | 0.117
118 | RRIRLRPPRLPRPRPRPFYAPRP | -0.279
119 | RRIRNRPPRLPRPRPRPICIPRP | -0.531
120 | RRIRKRPPRLPRPRPRPSSQPRP | 0.0821
121 | RRIRMRPPRLPRPRPRPDGKPRP | 0.322
122 | RRIRQRPPRLPRPRPRPNFKPRP | -0.235
123 | RRIRTRPPRLPRPRPRPAAAPRP | 0.618
124 | RRIRSRPPRLPRPRPRPSCSPRP | -0.231
125 | RRIRCRPPRLPRPRPRPQNQPRP | -0.00207

Row | Sequence | shrunken log2 fold change
126 | RRIRHRPPRLPRPRPRPAAGPRP | 0.323
127 | RRIRIRPPRLPRPRPRPMWYPRP | -0.554
128 | RRIRPRPPRLPRPRPRPNVEPRP | 0.0775
129 | RRIRARPPRLPRPRPRPSSDPRP | 0.301
130 | RRIRPRPPRLPRPRPRPLTPPRP | 0.222
131 | RRIRFRPPRLPRPRPRPIRLPRP | 0.0615
132 | RRIRRRPPRLPRPRPRPGFYPRP | -0.107
133 | RRIRVRPPRLPRPRPRPRARPRP | 0.737
134 | RRIRLRPPRLPRPRPRPAQVPRP | 0.324
135 | RRIRGRPPRLPRPRPRPIQWPRP | 0.325
136 | RRIRARPPRLPRPRPRPWRAPRP | 0.338
137 | RRIRVRPPRLPRPRPRPEMWPRP | 0.0217
138 | RRIRLRPPRLPRPRPRPQRYPRP | -0.307
139 | RRIRCRPPRLPRPRPRPSMTPRP | -0.178
140 | RRIRWRPPRLPRPRPRPDDHPRP | 0.0959
141 | RRIRGRPPRLPRPRPRPTPSPRP | 0.954
142 | RRIRPRPPRLPRPRPRPPSEPRP | 0.447
143 | RRIRTRPPRLPRPRPRPLASPRP | 0.125
144 | RRIRLRPPRLPRPRPRPCQHPRP | -0.382
145 | RRIRRRPPRLPRPRPRPLAAPRP | 0.874
146 | RRIRVRPPRLPRPRPRPDQNPRP | -0.0845
147 | RRIRERPPRLPRPRPRPNTTPRP | 0.123
148 | RRIRGRPPRLPRPRPRPDQVPRP | 0.656
149 | RRIRSRPPRLPRPRPRPPGHPRP | 0.167
150 | RRIRPRPPRLPRPRPRPFFFPRP | 0.279
